From article PMC7367177

Molecular target: ItaT(G115D) mutant protein (E. coli HS)
Assay: crystal structure

ItaT(G115D) mutant protein (enzyme)
stoichiometry N: 2
